According to patent US7070974B1, “Metalloproteases of the neprilysin family” (Universite de Montreal, priority 1999, dated 2006):
Like-named read-outs stand apart in the source and are kept apart here.

Key:
NL1 [1] = molecular target: T1, NL1 (Mus musculus, UniProt Q9JLI3); assay: HPLC analysis of the hydrolysis of Leu-enkephalin by NL1; assay type: biochemical; set-up: The soluble form of NL-1 was assayed for activity; made in house; host or cells: HEK 293 cells (section 2, pCDNA3/RSV); details: phosphoramidon 1 μM; Leu5-enkephalin; NL1 from medium of HEK/NL1 cells; RP-HPLC
T1 sequence (Q9JLI3 63-765 limits assumed): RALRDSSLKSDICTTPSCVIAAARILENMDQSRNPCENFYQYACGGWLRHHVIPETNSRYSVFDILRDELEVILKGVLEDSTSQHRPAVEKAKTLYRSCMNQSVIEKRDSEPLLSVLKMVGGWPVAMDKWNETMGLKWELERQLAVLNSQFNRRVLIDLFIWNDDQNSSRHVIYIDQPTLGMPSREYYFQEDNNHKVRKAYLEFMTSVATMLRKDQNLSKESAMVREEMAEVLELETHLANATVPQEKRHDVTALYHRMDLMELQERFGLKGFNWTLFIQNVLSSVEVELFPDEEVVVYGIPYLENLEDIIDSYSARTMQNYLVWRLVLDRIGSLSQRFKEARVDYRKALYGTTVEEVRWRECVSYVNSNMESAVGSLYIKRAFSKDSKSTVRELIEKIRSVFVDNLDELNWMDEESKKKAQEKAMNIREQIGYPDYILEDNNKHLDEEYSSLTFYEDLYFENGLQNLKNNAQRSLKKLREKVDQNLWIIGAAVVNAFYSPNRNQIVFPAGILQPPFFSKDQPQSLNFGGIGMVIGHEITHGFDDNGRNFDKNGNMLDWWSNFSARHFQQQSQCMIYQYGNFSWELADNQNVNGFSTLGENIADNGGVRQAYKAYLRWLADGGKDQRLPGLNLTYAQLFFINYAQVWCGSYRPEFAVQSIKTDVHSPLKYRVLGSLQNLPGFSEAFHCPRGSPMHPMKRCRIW
Text: (§1) Hydrolysis products were separated by reversed-phase HPLC as described previously.

sNEP = molecular target: T2, sNEP (Oryctolagus cuniculus, UniProt P08049); assay: HPLC analysis of the hydrolysis of Leu-enkephalin by sNEP; assay type: biochemical; details: phosphoramidon 1 μM, Leu5-enkephalin, RP-HPLC
T2 construct: Fusion of a cleavable signal peptide to the ectodomain of neutral endopeptidase; cleavable signal peptide of proopiomelanocortin (replaces cytosolic and transmembrane domains) (N, cleaved yes); made in house; host or cells: LLC-PK1 cells transfected with pRcCMV-sNEP; concentrated culture medium
T2 sequence (P08049 52-750 limits assumed): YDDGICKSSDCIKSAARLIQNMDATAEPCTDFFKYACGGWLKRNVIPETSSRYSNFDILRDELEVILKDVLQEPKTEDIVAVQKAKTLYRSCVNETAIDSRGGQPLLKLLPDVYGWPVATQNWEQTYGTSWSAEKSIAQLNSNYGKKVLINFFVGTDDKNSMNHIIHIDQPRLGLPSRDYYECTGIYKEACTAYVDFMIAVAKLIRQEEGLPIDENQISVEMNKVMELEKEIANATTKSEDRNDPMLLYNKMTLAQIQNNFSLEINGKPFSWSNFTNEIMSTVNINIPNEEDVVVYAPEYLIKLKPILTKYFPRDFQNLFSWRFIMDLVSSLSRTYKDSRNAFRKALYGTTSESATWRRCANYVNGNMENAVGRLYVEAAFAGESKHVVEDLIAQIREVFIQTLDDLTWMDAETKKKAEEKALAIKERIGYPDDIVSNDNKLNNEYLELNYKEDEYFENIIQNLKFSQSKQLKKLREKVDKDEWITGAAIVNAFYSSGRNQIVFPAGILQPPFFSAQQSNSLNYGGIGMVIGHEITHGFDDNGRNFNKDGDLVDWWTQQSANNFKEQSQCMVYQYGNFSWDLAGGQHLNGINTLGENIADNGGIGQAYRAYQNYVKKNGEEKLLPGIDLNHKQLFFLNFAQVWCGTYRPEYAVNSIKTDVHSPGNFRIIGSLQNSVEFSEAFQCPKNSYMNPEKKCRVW
Text: as §1

[2] = molecular target: T3, sNEP (engineered soluble form of NEP) (Oryctolagus cuniculus, UniProt P08049); assay: sNEP enzymatic activity assay with (Tyrosyl-[3,5-3H])(D-Ala2)-Leu5-enkephalin as substrate; assay type: biochemical; details: inhibition of sNEP/NEP activity
T3 construct: Fusion of a cleavable signal peptide to the ectodomain of neutral endopeptidase; cleavable signal peptide of proopiomelanocortin (replaces cytosolic and transmembrane domains) (N, cleaved yes); made in house; host or cells: LLC-PK1 cells transfected with pRcCMV-sNEP; concentrated culture medium
T3 sequence (P08049 52-750 limits assumed): T2 sequence (P08049 52-750 limits assumed)

NL1 [3] = molecular target: T1, NL1; assay: NL-1 enzymatic activity assay with (Tyrosyl-[3,5-3H])(D-Ala2)-Leu5-enkephalin as substrate; assay type: biochemical; set-up: The soluble form of NL-1 was assayed for activity; made in house; host or cells: CHO cells (section 1, pcDNA3-RSV) and HEK 293 cells (section 2, pCDNA3/RSV); details: inhibition of NL-1 degradation of the enkephalin substrate
Method: Extracts of cellular proteins and culture media were assayed for enzymatic activity. Two tests were performed. The first used [^3H]-Tyr-(D)Ala2-Leu-enkephalin as substrate and was performed according to Lemay et al., (1989). The second used bradykinin as substrate and was performed as described by Raut et al. (1999).
NL1 activity was monitored and compared to sNEP activity using (Tyrosyl-[3,5-^3H])(D-Ala2)-Leu5-enkephalin (50 Ci/mmol) (Research Products International Inc.), as already described (Dion 1995; Devault 1988). Km values were determined by the isotope-dilution method.

[4] = tested on: NL1 secretion (subtilisin-like convertase processing) in HEK 293 cells; assay: Immunoblot of culture media of HEK 293 cells co-expressing NL1 and α1-PDX; assay type: cell-based, Human; details: transient co-transfection, increasing amounts of α1-PDX plasmid; related to the amount
Method: Human Embryonic Kidney (HEK 293) cells were maintained in DMEM medium containing 10% fetal bovine serum (FBS), and supplemented with penicillin at 60 μg/ml, streptomycin at 100 μg/ml and fongizone at 0.25 μg/ml. Transfections of cells with appropriate plasmids were performed by the calcium/phosphate-DNA co-precipitation method (Chang 1987).
For immunoblot analysis, cells were incubated for 16 h in synthetic DMEM medium containing 2 mM sodium butyrate. Cellular proteins were solubilized as previously described (Dion 1995). Secreted proteins recovered in culture media were concentrated approximately 10 fold by ultrafiltration. Immunoblot analysis were performed using the NEN Renaissance kit with the polyclonal antibody specific to NL1 or the α1-antitrypsin inhibitor antibody (Calbiochem; LaJolla, Calif.) followed by the appropriate horseradish peroxidase-conjugated IgG (Vector Laboratories).
To determine whether a member of the mammalian subtilisine-like convertase family is responsible for NL1 presence in the culture medium of transfected cells, we co-transfected transiently HEK 293 cells with a constant amount of plasmid pCDNA3/RSV/NL1 and increasing amounts of plasmid pCDNA3/CMV/PDX (Benjannet 1997). This latter vector promotes the expression of the α1-antitrypsin Portland variant, α1-PDX, a known inhibitor of subtilisin-like convertases (Anderson 1993).

Leu5-enkephalin [5] = tested on: T4, Leu5-enkephalin
T4 sequence: YGGFL

[6] = tested on: T5, (Tyrosyl-[3,5-3H])(D-Ala2)-Leu5-enkephalin
T5 sequence: YAGFL

[7] = molecular target: T6, (Tyrosyl-[3,5-3H])(D-Ala2)-Leu5-enkephalin
T6 chain: YAGFL

Leu5-enkephalin [8] = molecular target: T7, Leu5-enkephalin
T7 chain: YGGFL

Sequence of bradykinin, P01042 (P01042 whole entry, looked up): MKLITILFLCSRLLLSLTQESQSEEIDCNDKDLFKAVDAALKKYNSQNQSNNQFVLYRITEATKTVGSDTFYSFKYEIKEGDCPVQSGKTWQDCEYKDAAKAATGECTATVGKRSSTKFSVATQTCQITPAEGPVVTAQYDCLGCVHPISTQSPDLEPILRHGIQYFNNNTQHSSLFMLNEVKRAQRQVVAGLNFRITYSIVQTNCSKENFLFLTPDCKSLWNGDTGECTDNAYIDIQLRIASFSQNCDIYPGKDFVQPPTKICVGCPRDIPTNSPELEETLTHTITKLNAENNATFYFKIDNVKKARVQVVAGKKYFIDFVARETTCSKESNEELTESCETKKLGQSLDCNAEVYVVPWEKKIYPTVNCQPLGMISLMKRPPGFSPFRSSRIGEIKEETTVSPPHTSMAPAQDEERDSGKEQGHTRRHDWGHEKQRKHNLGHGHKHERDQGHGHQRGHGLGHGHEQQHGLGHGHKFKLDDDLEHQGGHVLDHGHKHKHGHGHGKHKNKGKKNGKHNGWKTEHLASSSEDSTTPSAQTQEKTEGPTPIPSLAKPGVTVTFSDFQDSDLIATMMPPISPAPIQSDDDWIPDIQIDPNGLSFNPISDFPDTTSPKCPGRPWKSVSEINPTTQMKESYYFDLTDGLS

Question: Which results are given for CC(C)C[C@H](NP(=O)(O)O[C@@H]1O[C@@H](C)[C@H](O)[C@@H](O)[C@H]1O)C(=O)N[C@@H](Cc1c[nH]c2ccccc12)C(=O)O [phosphoramidon]?
Answer: inhibition of enkephalin-degrading activity (NL1 [1]): completely inhibited; inhibition of enkephalin-degrading activity (sNEP): completely inhibited; IC50 [2]: 500 pM; IC50 (NL1 [3]): 900 pM

Question: Which “effect on NL1 secretion” value [4] does the source give for “α1-PDX: α1-antitrypsin Portland variant, a known inhibitor of subtilisin-like convertases, expressed from plasmid pCDNA3/CMV/PDX” here?
Answer: strongly inhibited

Question: With engineered soluble form of NEP (sNEP) as the molecule, how does the “cleavage products by RP-HPLC” value (Leu5-enkephalin [5]) read?
Answer: both enzymes cleaved the substrate at the Gly3-Phe4 peptide bond

Question: What about the Km [6] of the same molecule?
Answer: Km values of 18 µM and 73 µM, respectively

Question: With O=C(O)CNC(=O)C(CS)Cc1ccccc1 (centres unmarked) [thiorphan] as the molecule, how does the IC50 (NL1 [3]) read?
Answer: 47000 pM

B1: soluble NL-1 (secreted form of mouse NL-1 recovered from culture medium) (protein)
chain: GKQLPLLTSLLHFSWDERTVVKRALRDSSLKSDICTTPSCVIAAARILENMDQSRNPCENFYQYACGGWLRHHVIPETNSRYSVFDILRDELEVILKGVLEDSTSQHRPAVEKAKTLYRSCMNQSVIEKRDSEPLLSVLKMVGGWPVAMDKWNETMGLKWELERQLAVLNSQFNRRVLIDLFIWNDDQNSSRHVIYIDQPTLGMPSREYYFQEDNNHKVRKAYLEFMTSVATMLRKDQNLSKESAMVREEMAEVLELETHLANATVPQEKRHDVTALYHRMDLMELQERFGLKGFNWTLFIQNVLSSVEVELFPDEEVVVYGIPYLENLEDIIDSYSARTMQNYLVWRLVLDRIGSLSQRFKEARVDYRKALYGTTVEEVRWRECVSYVNSNMESAVGSLYIKRAFSKDSKSTVRELIEKIRSVFVDNLDELNWMDEESKKKAQEKAMNIREQIGYPDYILEDNNKHLDEEYSSLTFYEDLYFENGLQNLKNNAQRSLKKLREKVDQNLWIIGAAVVNAFYSPNRNQIVFPAGILQPPFFSKDQPQSLNFGGIGMVIGHEITHGFDDNGRNFDKNGNMLDWWSNFSARHFQQQSQCMIYQYGNFSWELADNQNVNGFSTLGENIADNGGVRQAYKAYLRWLADGGKDQRLPGLNLTYAQLFFINYAQVWCGSYRPEFAVQSIKTDVHSPLKYRVLGSLQNLPGFSEAFHCPRGSPMHPMKRCRIW
Question: What does the source list for B1?
Answer: substrate degradation (bradykinin, P01042): Bradykinin is also a substrate for NL-1 (not shown); Km [7]: Km values of 18 µM and 73 µM, respectively; Km (degradation of the enkephalin substrate) [7]: Km=18±10 µM; enzymatic activity in culture medium [7]: Activity was detected in the culture medium of HEK/NL1 cells but not in that of HEK 293 cells; cleavage products by RP-HPLC (Leu5-enkephalin [8]): both enzymes cleaved the substrate at the Gly3-Phe4 peptide bond

B2: soluble form of NL-3 (NL-3 ectodomain secreted by means of the NL-1 amino-terminal domain) (protein)
chain: KYLGPVAAGGGACPEGCPERKAFARAARFLAANLDASIDPCQDFYSFACGGWLRRHAIPDDKLTYGTIAAIGEQNEERLRRLLARPGGGPGGAAQRKVRAFFRSCLDMREIERLGPRPMLEVIEDCGGWDLGGAEERPGVAARWDLNRLLYKAQGVYSAAALFSLTVSLDDRNSSRYVIRIDQDGLTLPERTLYLAQDEDSEKVLAAYRVFMERVLSLLGADAVEQKAQEILQVEQQLANITVSEYDDLRRDVSSMYNKVTLGQLQKITPHLRWKWLLDQIFQEDFSEEEEVVLLATDYMQQVSQLIRSTPHRVLHNYLVWRVVVVLSEHLSPPFREALHELAQEMEGSDKPQELARVCLGQANRHFGMALGALFVHEHFSAASKAKVQQLVEDIKYILGQRLEELDWMDAETRAAARAKLQYMMVMVGYPDFLLKPDAVDKEYEFEVHEKTYFKNILNSIRFSIQLSVKKIRQEVDKSTWLLPPQALNAYYLPNKNQMVFPAGILQPTLYDPDFPQSLNYGGIGTIIGHELTHGYDDWGGQYDRSGNLLHWWTEASYSRFLRKAECIVRLYDNFTVYNQRVNGKHTLGENIADMGGLKLAYHAYQKWVREHGPEHPLPRLKYTHDQLFFIAFAQNWCIKRRSQSIYLQVLTDKHAPEHYRVLGSVSQFEEFGRVLHCPKVSPMNPAHKCSVW
Question: B2 was tested. Which enzymatic activity [7] did it give?
Answer: No activity was found.
